Data taken from paper PMC2756588.

T1: Bzz1-2, P38822
T1 sequence (P38822 568-633, looked up): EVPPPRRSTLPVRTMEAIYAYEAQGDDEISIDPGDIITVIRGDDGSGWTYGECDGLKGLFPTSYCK

T2: Pex13, P80667
T2 sequence (P80667 295-386, looked up): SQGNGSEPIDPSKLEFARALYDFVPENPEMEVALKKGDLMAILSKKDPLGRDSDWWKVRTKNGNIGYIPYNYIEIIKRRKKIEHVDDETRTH

T3: Cdc25, P04821
T3 sequence (P04821 50-136, looked up): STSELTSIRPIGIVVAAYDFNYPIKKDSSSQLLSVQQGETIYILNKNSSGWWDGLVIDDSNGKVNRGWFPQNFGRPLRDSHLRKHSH

T4: Lsb3, P43603
T4 sequence (P43603 385-451, looked up): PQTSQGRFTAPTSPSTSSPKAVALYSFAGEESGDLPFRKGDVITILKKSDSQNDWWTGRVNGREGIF

T5: Sla1-3, P32790
T5 sequence (P32790 344-424, looked up): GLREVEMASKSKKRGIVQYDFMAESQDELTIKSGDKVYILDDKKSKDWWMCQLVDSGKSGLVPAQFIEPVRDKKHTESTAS

T6: Lsb1, P53281
T6 sequence (P53281 45-122, looked up): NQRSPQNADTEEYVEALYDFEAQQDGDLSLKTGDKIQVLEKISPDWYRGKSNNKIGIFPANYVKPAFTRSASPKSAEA

T7: Pin3, Q06449
T7 sequence (Q06449 53-122, looked up): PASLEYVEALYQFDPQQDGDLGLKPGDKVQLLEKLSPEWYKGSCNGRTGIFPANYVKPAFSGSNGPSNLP

T8: Nbp2, Q12163
T8 sequence (Q12163 103-180, looked up): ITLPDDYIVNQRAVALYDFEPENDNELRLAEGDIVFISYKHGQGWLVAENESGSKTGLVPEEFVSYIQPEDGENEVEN

T9: Bzz1-1, P38822
T9 sequence (P38822 478-572, looked up): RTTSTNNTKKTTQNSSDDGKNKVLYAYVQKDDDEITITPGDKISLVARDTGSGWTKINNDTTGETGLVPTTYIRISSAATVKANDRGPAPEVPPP

T10: Bud14, P27637
T10 sequence (P27637 247-328, looked up): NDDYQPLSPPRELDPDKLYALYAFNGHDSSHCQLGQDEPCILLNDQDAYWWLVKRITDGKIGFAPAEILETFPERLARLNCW

T11: Sla1-2, P32790
T11 sequence (P32790 60-140, looked up): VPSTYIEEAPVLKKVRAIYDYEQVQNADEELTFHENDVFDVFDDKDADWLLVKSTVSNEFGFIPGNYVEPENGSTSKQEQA

T12: Hse1, P38753
T12 sequence (P38753 208-285, looked up): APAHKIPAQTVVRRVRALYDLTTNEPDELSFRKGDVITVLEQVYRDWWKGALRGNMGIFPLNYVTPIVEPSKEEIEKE

T13: Boi2, P39969
T13 sequence (P39969 32-116, looked up): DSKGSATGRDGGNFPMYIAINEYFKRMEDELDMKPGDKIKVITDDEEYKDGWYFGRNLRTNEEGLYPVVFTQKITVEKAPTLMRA

T14: Cyk3, Q07533
T14 sequence (Q07533 1-83, looked up): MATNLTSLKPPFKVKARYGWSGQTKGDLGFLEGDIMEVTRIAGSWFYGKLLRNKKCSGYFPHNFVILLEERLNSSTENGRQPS

T15: Abp1, P15891
T15 sequence (P15891 535-592, looked up): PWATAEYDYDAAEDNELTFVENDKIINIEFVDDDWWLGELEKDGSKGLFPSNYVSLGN

T16: Myo5, Q04439
T16 sequence (Q04439 1072-1160, looked up): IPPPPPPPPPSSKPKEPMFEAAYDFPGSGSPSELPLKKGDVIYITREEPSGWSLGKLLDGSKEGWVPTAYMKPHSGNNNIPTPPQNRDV

T17: Lsb4, P32793
T17 sequence (P32793 402-468, looked up): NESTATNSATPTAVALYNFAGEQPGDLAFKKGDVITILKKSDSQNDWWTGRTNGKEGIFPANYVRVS

T18: Bbc1, P47068
T18 sequence (P47068 1-78, looked up): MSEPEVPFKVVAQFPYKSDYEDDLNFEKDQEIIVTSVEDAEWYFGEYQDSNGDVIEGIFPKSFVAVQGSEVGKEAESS

T19: Hof1, Q05080
T19 sequence (Q05080 590-669, looked up): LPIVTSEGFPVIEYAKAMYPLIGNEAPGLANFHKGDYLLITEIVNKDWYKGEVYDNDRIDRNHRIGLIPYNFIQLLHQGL

T20: Fus1, P11710
T20 sequence (P11710 432-512, looked up): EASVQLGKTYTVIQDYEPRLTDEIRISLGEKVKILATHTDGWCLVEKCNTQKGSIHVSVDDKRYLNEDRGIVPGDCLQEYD

T21: Boi1, P38041
T21 sequence (P38041 1-86, looked up): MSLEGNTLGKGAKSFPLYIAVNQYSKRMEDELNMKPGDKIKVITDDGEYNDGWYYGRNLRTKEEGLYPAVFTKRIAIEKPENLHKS


molecular target: T1, Bzz1-2, P38822; assay: SPOT array; settings: median of control spots 4538

Binder | SPOT intensity
FTLPPPPPPPGLDEL | 0
DFTLPPPPPPPGLDE | 0
VPPPMQPPPIESSNL | 0

molecular target: T2, Pex13, P80667; assay: SPOT array; settings: median of control spots 1341

Binder | SPOT intensity
FTLPPPPPPPGLDEL | 13
DFTLPPPPPPPGLDE | 0
VPPPMQPPPIESSNL | 27

molecular target: T3, Cdc25, P04821; assay: SPOT array; settings: median of control spots 969

Binder | SPOT intensity
FTLPPPPPPPGLDEL | 0
DFTLPPPPPPPGLDE | 0
VPPPMQPPPIESSNL | 0

molecular target: Bem1-2, P29366; assay: SPOT array; settings: median of control spots 4347
Sequence (P29366 139-227): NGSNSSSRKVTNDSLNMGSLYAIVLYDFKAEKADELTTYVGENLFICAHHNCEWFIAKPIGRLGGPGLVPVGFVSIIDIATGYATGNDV

Binder | SPOT intensity
FTLPPPPPPPGLDEL | 0
DFTLPPPPPPPGLDE | 1
VPPPMQPPPIESSNL | 0

molecular target: Rvs167, P39743; assay: SPOT array; settings: median of control spots 2707
Sequence (P39743 419-482): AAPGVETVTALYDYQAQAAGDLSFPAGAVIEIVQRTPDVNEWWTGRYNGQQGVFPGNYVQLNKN

Binder | SPOT intensity
FTLPPPPPPPGLDEL | 0
DFTLPPPPPPPGLDE | 0
VPPPMQPPPIESSNL | 0

molecular target: T4, Lsb3, P43603; assay: SPOT array; settings: median of control spots 406

Binder | SPOT intensity
FTLPPPPPPPGLDEL | 0
DFTLPPPPPPPGLDE | 0
VPPPMQPPPIESSNL | 0

molecular target: T5, Sla1-3, P32790; assay: SPOT array; settings: median of control spots 5475

Binder | SPOT intensity
FTLPPPPPPPGLDEL | 0
DFTLPPPPPPPGLDE | 0
VPPPMQPPPIESSNL | 0

molecular target: T6, Lsb1, P53281; assay: SPOT array; settings: median of control spots 388

Binder | SPOT intensity
FTLPPPPPPPGLDEL | 0
DFTLPPPPPPPGLDE | 0
VPPPMQPPPIESSNL | 99

molecular target: T7, Pin3, Q06449; assay: SPOT array; settings: median of control spots 2171

Binder | SPOT intensity
FTLPPPPPPPGLDEL | 0
DFTLPPPPPPPGLDE | 0
VPPPMQPPPIESSNL | 114

molecular target: GST; assay: SPOT array; settings: median of control spots 978

Binder | SPOT intensity
FTLPPPPPPPGLDEL | 1
DFTLPPPPPPPGLDE | 1
VPPPMQPPPIESSNL | 0

molecular target: T8, Nbp2, Q12163; assay: SPOT array; settings: median of control spots 357

Binder | SPOT intensity
FTLPPPPPPPGLDEL | 0
DFTLPPPPPPPGLDE | 3
VPPPMQPPPIESSNL | 6

molecular target: T9, Bzz1-1, P38822; assay: SPOT array; settings: median of control spots 4446

Binder | SPOT intensity
FTLPPPPPPPGLDEL | 7
DFTLPPPPPPPGLDE | 0
VPPPMQPPPIESSNL | 0

molecular target: T10, Bud14, P27637; assay: SPOT array; settings: median of control spots 956

Binder | SPOT intensity
FTLPPPPPPPGLDEL | 0
DFTLPPPPPPPGLDE | 0
VPPPMQPPPIESSNL | 0

molecular target: T11, Sla1-2, P32790; assay: SPOT array; settings: median of control spots 712

Binder | SPOT intensity
FTLPPPPPPPGLDEL | 0
DFTLPPPPPPPGLDE | 0
VPPPMQPPPIESSNL | 2

molecular target: T12, Hse1, P38753; assay: SPOT array; settings: median of control spots 1727

Binder | SPOT intensity
FTLPPPPPPPGLDEL | 0
DFTLPPPPPPPGLDE | 0
VPPPMQPPPIESSNL | 0

molecular target: T13, Boi2, P39969; assay: SPOT array; settings: median of control spots 1161

Binder | SPOT intensity
FTLPPPPPPPGLDEL | 0
DFTLPPPPPPPGLDE | 0
VPPPMQPPPIESSNL | 0

molecular target: Myo3, P36006; assay: SPOT array; settings: median of control spots 468

Binder | SPOT intensity
FTLPPPPPPPGLDEL | 455
DFTLPPPPPPPGLDE | 345
VPPPMQPPPIESSNL | 318

molecular target: T14, Cyk3, Q07533; assay: SPOT array; settings: median of control spots 1451

Binder | SPOT intensity
FTLPPPPPPPGLDEL | 2
DFTLPPPPPPPGLDE | 0
VPPPMQPPPIESSNL | 1

molecular target: T15, Abp1, P15891; assay: SPOT array; settings: median of control spots 935

Binder | SPOT intensity
FTLPPPPPPPGLDEL | 0
DFTLPPPPPPPGLDE | 0
VPPPMQPPPIESSNL | 85

molecular target: T16, Myo5, Q04439; assay: SPOT array; settings: median of control spots 471

Binder | SPOT intensity
FTLPPPPPPPGLDEL | 234
DFTLPPPPPPPGLDE | 306
VPPPMQPPPIESSNL | 167

molecular target: T17, Lsb4, P32793; assay: SPOT array; settings: median of control spots 397

Binder | SPOT intensity
FTLPPPPPPPGLDEL | 0
DFTLPPPPPPPGLDE | 0
VPPPMQPPPIESSNL | 48

molecular target: T18, Bbc1, P47068; assay: SPOT array; settings: median of control spots 796

Binder | SPOT intensity
FTLPPPPPPPGLDEL | 0
DFTLPPPPPPPGLDE | 0
VPPPMQPPPIESSNL | 0

molecular target: T19, Hof1, Q05080; assay: SPOT array; settings: median of control spots 4086

Binder | SPOT intensity
FTLPPPPPPPGLDEL | 116
DFTLPPPPPPPGLDE | 6
VPPPMQPPPIESSNL | 0

molecular target: Sho1, P40073; assay: SPOT array; settings: median of control spots 1148
Sequence (P40073 287-367): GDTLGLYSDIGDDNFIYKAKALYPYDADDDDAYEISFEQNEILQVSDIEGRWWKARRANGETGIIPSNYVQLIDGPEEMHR

Binder | SPOT intensity
FTLPPPPPPPGLDEL | 0
DFTLPPPPPPPGLDE | 0
VPPPMQPPPIESSNL | 0

molecular target: Bem1-1, P29366; assay: SPOT array; settings: median of control spots 4282
Sequence (P29366 55-141): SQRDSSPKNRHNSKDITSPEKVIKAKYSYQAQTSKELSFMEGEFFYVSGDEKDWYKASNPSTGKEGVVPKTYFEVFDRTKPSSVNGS

Binder | SPOT intensity
FTLPPPPPPPGLDEL | 0
DFTLPPPPPPPGLDE | 0
VPPPMQPPPIESSNL | 0

molecular target: T20, Fus1, P11710; assay: SPOT array; settings: median of control spots 1200

Binder | SPOT intensity
FTLPPPPPPPGLDEL | 0
DFTLPPPPPPPGLDE | 0
VPPPMQPPPIESSNL | 1

molecular target: T21, Boi1, P38041; assay: SPOT array; settings: median of control spots 1162

Binder | SPOT intensity
FTLPPPPPPPGLDEL | 0
DFTLPPPPPPPGLDE | 0
VPPPMQPPPIESSNL | 1
